Assay results taken from article PMC10033635.

Biological target: African cichlid nackednavirus capsid protein (African cichlid nackednavirus (ACNDV))
Test: cryo-EM structure; capsids assembled in E. coli and purified; TRIS buffer (50 mM TRIS, 50 mM NaCl, 5 mM EDTA, 5 mM DTT), pH 7.5; icosahedral symmetry imposed

Substance: African cichlid nackednavirus capsid protein (natural protein)
- stoichiometry N (protein dimers): 90
